The text below walks through data of PMC7232412.

For experiment [1], the target named is HIV-1 Gag p6 with ubiquitin fused to its C-terminus (pGBT p6-Ub), P04591;P0CG48. The experiment is described as follows: yeast 2-hybrid assay. Conditions: parent: est. 1.0; read off a plot.
Another experiment deals with HIV-1 Gag p6 (pGBT p6) (UniProt P04591). The experiment is described as follows: yeast 2-hybrid assay. The conditions noted are these: parent: est. 1.0; read off a plot.

In the case of “human Tsg101 wild-type (pGAD-hTsg101) (from UniProt Q99816) Y43A”, the ratio to parent in experiment [1] came to 1.5; with HIV-1 Gag p6 (pGBT p6), 1.4.
